Assay results taken from publication PMC11317896, “Stem lodging Resistance-1 controls stem strength by positively regulating the biosynthesis of cell wall components in Capsicum annuum L”.

T1: CaNAC6 (GST-NAC6 fusion) (Capsicum annuum, UniProt A0A1U8EDX1 1-299)
T1 sequence: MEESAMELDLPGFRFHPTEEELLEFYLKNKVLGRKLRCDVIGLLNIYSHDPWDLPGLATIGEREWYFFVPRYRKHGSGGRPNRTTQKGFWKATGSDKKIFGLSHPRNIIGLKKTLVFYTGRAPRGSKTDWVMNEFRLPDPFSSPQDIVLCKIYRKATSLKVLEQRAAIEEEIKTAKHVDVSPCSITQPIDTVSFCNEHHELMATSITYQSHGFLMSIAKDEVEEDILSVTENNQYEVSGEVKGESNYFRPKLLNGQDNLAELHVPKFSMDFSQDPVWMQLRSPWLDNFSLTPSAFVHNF

B1: CaSLR1 SNBE1 mutant probe (dsDNA)
DNA 1: CTTTTGGATTTGTCTTGTAAGAAGATCAA
DNA 2: TTGATCTTCTTACAAGACAAATCCAAAAG
B2: CaSLR1 SNBE3 mutant probe (dsDNA)
DNA 1: TCTTAGTACTTATACCTCAAGGCGCAAGG
DNA 2: CCTTGCGCCTTGAGGTATAAGTACTAAGA
B3: CaSLR1 SNBE2 mutant probe (dsDNA)
DNA 1: GTTGTGTTTCTCTTTTATACGTTGGTCGT
DNA 2: ACGACCAACGTATAAAAGAGAAACACAAC

Target: T1, CaNAC6 (GST-NAC6 fusion)
Test: EMSA; LightShift chemiluminescence EMSA kit (Bes5003), 6% acrylamide gel; buffer, salt, pH and temperature not stated
Settings: protein: recombinant; tags: GST; chain copies: 2; label: biotin

| Binder | binding result |
| --- | --- |
| B1 | no binding |
| B2 | no binding |
| B3 | no binding |
